{
  "source": "paper PMC9569990",
  "about": "(International Journal of Molecular Sciences, 2022)",
  "binders": {"B1": {"name": "Human S100P protein (recombinant, Ca^2+-loaded) (natural protein)", "chain": "MTELETAMGMIIDVFSRYSGSEGSTQTLTKGELKVLMEKELPGFLQSGKDKDAVDKLLKDLDANGDAQVDFSEFIVFVAAITSACHKYFEKAGLK", "notes": "S100P protein, human, recombinant; probably the whole 95-residue protein (surmise); also called wild-type S100P; WT S100P; source: E. coli, prepared as previously described [28]"}},
  "experiment_in_all_cases": "SPR; cytokine immobilised on ProteOn GLH sensor chip by amine coupling (9,000-14,000 RU); S100P (wild type or mutant) as analyte, 62 nM-16 µM; 25 °C; 10 mM HEPES, 150 mM NaCl, 1 mM CaCl2, 0.05% TWEEN 20, pH 7.4; heterogeneous ligand model (two ligand populations), one-site model for IL-13; values averaged over analyte concentrations (n = 3-5)",
  "conditions_in_all_cases": "both partners purified",
  "key": {"Interleukin-22": {"target": "T1, Interleukin-22 (human, UniProt Q9GZX6 34-179)", "T1 construct": "Interleukin-22, human, UniProt Q9GZX6; see the manufacturer's catalogue number; also called IL-22; source: bought: PeproTech (source E. coli)", "T1 sequence (looked up)": "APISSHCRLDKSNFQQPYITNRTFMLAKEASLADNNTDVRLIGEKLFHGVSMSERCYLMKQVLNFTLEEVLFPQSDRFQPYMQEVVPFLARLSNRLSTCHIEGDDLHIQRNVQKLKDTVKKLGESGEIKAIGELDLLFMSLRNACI"}, "Interferon ω-1": {"target": "T2, Interferon ω-1 (human, UniProt P05000 22-195)", "T2 construct": "Interferon omega-1, human, UniProt P05000; see the manufacturer's catalogue number; also called IFN-ω1; source: bought: PeproTech (source E. coli)", "T2 sequence (P05000 22-195)": "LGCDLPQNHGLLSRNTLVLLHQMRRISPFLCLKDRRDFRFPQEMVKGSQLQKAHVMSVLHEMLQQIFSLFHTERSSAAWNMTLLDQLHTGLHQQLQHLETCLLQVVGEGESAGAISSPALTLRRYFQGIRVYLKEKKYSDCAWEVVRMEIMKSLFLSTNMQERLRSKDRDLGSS"}, "Thrombopoietin": {"target": "T3, Thrombopoietin (human, UniProt P40225 22-353)", "T3 construct": "Thrombopoietin, human, UniProt P40225; see the manufacturer's catalogue number; also called THPO; source: bought: SCI-Store (Russia) (source CHO)", "T3 sequence (P40225 22-353)": "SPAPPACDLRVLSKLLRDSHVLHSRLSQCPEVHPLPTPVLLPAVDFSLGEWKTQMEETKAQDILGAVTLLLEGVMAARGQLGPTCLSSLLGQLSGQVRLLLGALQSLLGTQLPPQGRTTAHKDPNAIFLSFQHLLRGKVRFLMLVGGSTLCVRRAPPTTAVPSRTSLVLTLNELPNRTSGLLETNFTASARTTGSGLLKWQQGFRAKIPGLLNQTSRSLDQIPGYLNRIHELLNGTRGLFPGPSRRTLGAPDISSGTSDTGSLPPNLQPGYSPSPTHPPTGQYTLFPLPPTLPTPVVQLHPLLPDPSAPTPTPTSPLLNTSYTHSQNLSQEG"}, "Leptin": {"target": "T4, Leptin (human, UniProt P41159 22-167)", "T4 construct": "Leptin, human, UniProt P41159; see the manufacturer's catalogue number; source: bought: PeproTech (source E. coli)", "T4 sequence (P41159 22-167)": "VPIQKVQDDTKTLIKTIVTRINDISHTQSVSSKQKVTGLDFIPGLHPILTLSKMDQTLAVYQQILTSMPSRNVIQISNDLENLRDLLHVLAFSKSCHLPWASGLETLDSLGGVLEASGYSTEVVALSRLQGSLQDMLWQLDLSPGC"}, "Interleukin-35": {"target": "T5, Interleukin-35 (human, UniProt P29459 23-219; Q14213 21-229)", "T5 construct": "the chain used for the SCOP family assignment; also called IL-35; source: bought: PeproTech (source HEK293)", "T5 sequence (looked up) 1": "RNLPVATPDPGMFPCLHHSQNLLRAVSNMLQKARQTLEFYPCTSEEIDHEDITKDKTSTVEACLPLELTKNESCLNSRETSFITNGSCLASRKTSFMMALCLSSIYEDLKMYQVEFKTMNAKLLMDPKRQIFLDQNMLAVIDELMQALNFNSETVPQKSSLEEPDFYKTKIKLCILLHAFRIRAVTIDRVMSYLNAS", "T5 sequence (looked up) 2": "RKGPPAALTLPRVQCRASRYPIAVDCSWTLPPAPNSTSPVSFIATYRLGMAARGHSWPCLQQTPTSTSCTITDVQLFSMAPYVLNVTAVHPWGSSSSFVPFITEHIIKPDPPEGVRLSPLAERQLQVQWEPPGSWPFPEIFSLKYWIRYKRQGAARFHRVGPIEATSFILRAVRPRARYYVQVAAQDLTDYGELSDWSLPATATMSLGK"}, "Growth hormone variant": {"target": "T6, Growth hormone variant (human, UniProt P01242 27-217)", "T6 construct": "Growth hormone variant, human, UniProt P01242; see the manufacturer's catalogue number; also called GH-V; source: bought: R&D Systems (source E. coli)", "T6 sequence (P01242 27-217, change not shown)": "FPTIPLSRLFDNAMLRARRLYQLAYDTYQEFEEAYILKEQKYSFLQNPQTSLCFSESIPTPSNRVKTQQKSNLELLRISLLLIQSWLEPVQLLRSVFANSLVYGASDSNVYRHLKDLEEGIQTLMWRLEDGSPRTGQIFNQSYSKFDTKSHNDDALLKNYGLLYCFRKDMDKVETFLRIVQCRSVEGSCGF"}, "Interleukin-21": {"target": "T7, Interleukin-21 (human, UniProt Q9HBE4 25-162)", "T7 construct": "Interleukin-21, human, UniProt Q9HBE4; see the manufacturer's catalogue number; also called IL-21; source: bought: PeproTech (source E. coli)", "T7 sequence (Q9HBE4 25-162)": "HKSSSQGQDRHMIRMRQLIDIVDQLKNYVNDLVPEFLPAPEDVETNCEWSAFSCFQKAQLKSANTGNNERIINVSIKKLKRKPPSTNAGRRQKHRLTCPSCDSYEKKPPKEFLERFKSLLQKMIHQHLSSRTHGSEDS"}},
  "data": [
    {"binder": "B1", "values": [
      {"measurement": "Kd1 (heterogeneous ligand model, population 1)", "setting": "Interleukin-22", "value": 482, "unit": "nM"},
      {"measurement": "Kd2 (heterogeneous ligand model, population 2)", "setting": "Interleukin-22", "value": 780, "unit": "nM"},
      {"measurement": "kd1 (heterogeneous ligand model, population 1)", "setting": "Interleukin-22", "value": 0.00764, "unit": "s⁻¹"},
      {"measurement": "kd2 (heterogeneous ligand model, population 2)", "setting": "Interleukin-22", "value": 0.00276, "unit": "s⁻¹"},
      {"measurement": "Kd1 (heterogeneous ligand model, population 1)", "setting": "Interferon ω-1", "value": 174, "unit": "nM"},
      {"measurement": "Kd2 (heterogeneous ligand model, population 2)", "setting": "Interferon ω-1", "value": 578, "unit": "nM"},
      {"measurement": "kd1 (heterogeneous ligand model, population 1)", "setting": "Interferon ω-1", "value": 0.000571, "unit": "s⁻¹"},
      {"measurement": "kd2 (heterogeneous ligand model, population 2)", "setting": "Interferon ω-1", "value": 0.00839, "unit": "s⁻¹"},
      {"measurement": "Kd1 (heterogeneous ligand model, population 1)", "setting": "Thrombopoietin", "value": 834, "unit": "pM"},
      {"measurement": "Kd2 (heterogeneous ligand model, population 2)", "setting": "Thrombopoietin", "value": 41.2, "unit": "nM"},
      {"measurement": "kd1 (heterogeneous ligand model, population 1)", "setting": "Thrombopoietin", "value": 0.000409, "unit": "s⁻¹"},
      {"measurement": "kd2 (heterogeneous ligand model, population 2)", "setting": "Thrombopoietin", "value": 0.00829, "unit": "s⁻¹"},
      {"measurement": "Kd1 (heterogeneous ligand model, population 1)", "setting": "Leptin", "value": 143, "unit": "nM"},
      {"measurement": "Kd2 (heterogeneous ligand model, population 2)", "setting": "Leptin", "value": 404, "unit": "nM"},
      {"measurement": "kd1 (heterogeneous ligand model, population 1)", "setting": "Leptin", "value": 0.000452, "unit": "s⁻¹"},
      {"measurement": "kd2 (heterogeneous ligand model, population 2)", "setting": "Leptin", "value": 0.0307, "unit": "s⁻¹"},
      {"measurement": "Kd1 (heterogeneous ligand model, population 1)", "setting": "Interleukin-35", "value": 96.2, "unit": "nM"},
      {"measurement": "Kd2 (heterogeneous ligand model, population 2)", "setting": "Interleukin-35", "value": 255, "unit": "nM"},
      {"measurement": "kd1 (heterogeneous ligand model, population 1)", "setting": "Interleukin-35", "value": 0.000531, "unit": "s⁻¹"},
      {"measurement": "kd2 (heterogeneous ligand model, population 2)", "setting": "Interleukin-35", "value": 0.012, "unit": "s⁻¹"},
      {"measurement": "Kd1 (heterogeneous ligand model, population 1)", "setting": "Growth hormone variant", "value": 1.04, "unit": "µM"},
      {"measurement": "Kd2 (heterogeneous ligand model, population 2)", "setting": "Growth hormone variant", "value": 2.73, "unit": "µM"},
      {"measurement": "kd1 (heterogeneous ligand model, population 1)", "setting": "Growth hormone variant", "value": 0.00177, "unit": "s⁻¹"},
      {"measurement": "kd2 (heterogeneous ligand model, population 2)", "setting": "Growth hormone variant", "value": 0.0181, "unit": "s⁻¹"},
      {"measurement": "Kd1 (heterogeneous ligand model, population 1)", "setting": "Interleukin-21", "value": 272, "unit": "nM"},
      {"measurement": "Kd2 (heterogeneous ligand model, population 2)", "setting": "Interleukin-21", "value": 285, "unit": "nM"},
      {"measurement": "kd1 (heterogeneous ligand model, population 1)", "setting": "Interleukin-21", "value": 0.000928, "unit": "s⁻¹"},
      {"measurement": "kd2 (heterogeneous ligand model, population 2)", "setting": "Interleukin-21", "value": 0.0126, "unit": "s⁻¹"}
    ]}
  ]
}
